Experiments:
Assay in all cases: crystal structure; TG3 form mixed with Fab DH63-B02 at 1:1.1 molar ratio, complex purified by SEC; crystals in 0.1 M HEPES-MOPS pH 7.1, 16-22% ethylene glycol, 8-11% PEG 8000, 6-10 mM CaCl2, 3-10 mM MgCl2; three Ca2+ bound
Settings in all cases: both partners purified
[1] = target: T1, zymogen transglutaminase 3 (TG3), human recombinant (Homo sapiens, UniProt Q08188)
T1 construct: human transglutaminase 3, uncleaved zymogen (79 kDa), with N-terminal, catalytic core, C1 and C2 domains; the loop 461-473 is intact; also called TG3 zymogen; zymogen TG3; source: Sf9 insect cells, purified (Ni-NTA)
T1 sequence (Q08188 whole entry, the tested form may be a part): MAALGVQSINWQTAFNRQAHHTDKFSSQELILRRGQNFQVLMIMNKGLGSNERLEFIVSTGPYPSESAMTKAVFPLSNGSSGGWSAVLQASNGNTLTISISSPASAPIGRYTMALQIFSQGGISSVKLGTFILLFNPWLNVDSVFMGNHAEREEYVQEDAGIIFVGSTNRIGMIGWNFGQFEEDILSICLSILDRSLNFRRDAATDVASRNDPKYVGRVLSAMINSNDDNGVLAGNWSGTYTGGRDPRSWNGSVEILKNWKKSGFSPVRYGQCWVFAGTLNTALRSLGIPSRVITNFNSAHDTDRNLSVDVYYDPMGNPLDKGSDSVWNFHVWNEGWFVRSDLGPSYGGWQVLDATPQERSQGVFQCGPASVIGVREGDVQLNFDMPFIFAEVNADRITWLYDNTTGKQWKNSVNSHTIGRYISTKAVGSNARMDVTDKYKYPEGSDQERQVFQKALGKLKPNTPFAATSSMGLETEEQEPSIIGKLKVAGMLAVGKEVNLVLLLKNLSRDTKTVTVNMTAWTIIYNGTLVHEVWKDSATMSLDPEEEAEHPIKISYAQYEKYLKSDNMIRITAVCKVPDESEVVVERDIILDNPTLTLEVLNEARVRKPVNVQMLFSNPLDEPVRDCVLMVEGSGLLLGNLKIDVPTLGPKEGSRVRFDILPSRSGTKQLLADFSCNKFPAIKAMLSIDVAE

[2] = target: T2, dispase-cleaved TG3 (N-terminal and core domains with C1C2 non-covalently associated) (Homo sapiens, UniProt Q08188)
T2 construct: human transglutaminase 3, N-terminal and catalytic core domains (N-core, 51 kDa) left by dispase cleavage in the loop 461-473; human transglutaminase 3, the two C-terminal beta-barrel domains C1C2 (26 kDa) left by dispase cleavage in the loop 461-473; TG3 was His-tagged before cleavage; source: Sf9 insect cells, purified (Ni-NTA); cleaved with dispase I, SEC
T2 sequence (Q08188 whole entry, chain 1 of 2, the tested form may be a part): as the sequence (Q08188 whole entry, the tested form may be a part) above
T2 sequence (Q08188 whole entry, chain 2 of 2, the tested form may be a part): as the sequence (Q08188 whole entry, the tested form may be a part) above

[3] = target: T3, N-terminal and core domains (N-core) of cleaved TG3 (Homo sapiens, UniProt Q08188)
T3 construct: human transglutaminase 3, N-terminal and catalytic core domains (N-core, 51 kDa) left by cleavage in the loop 461-473; also called catalytic core domain; catalytic domain; source: Sf9 insect cells, purified (Ni-NTA); cleaved with dispase I or cathepsin L, SEC
T3 sequence (Q08188 whole entry, the tested form may be a part): as above

[4] = target: T4, Z-DON-associated TG3 without C1C2 (enzyme-substrate intermediate conformer) (human, UniProt Q08188, Cys273 alkylated by Z-DON (Z-DON-Val-Pro-Leu-OMe))
T4 construct: human transglutaminase 3, N-terminal and catalytic core domains (N-core, 51 kDa) left by cleavage in the loop 461-473; TG3 was His-tagged before cleavage; The cleavage sites of dispase and cathepsin L may differ; also called cleaved TG3 + Z-DON; source: Sf9 insect cells, purified (Ni-NTA); cleaved with dispase I or cathepsin L, incubated with Z-DON, SEC
T4 sequence (Q08188 2-461): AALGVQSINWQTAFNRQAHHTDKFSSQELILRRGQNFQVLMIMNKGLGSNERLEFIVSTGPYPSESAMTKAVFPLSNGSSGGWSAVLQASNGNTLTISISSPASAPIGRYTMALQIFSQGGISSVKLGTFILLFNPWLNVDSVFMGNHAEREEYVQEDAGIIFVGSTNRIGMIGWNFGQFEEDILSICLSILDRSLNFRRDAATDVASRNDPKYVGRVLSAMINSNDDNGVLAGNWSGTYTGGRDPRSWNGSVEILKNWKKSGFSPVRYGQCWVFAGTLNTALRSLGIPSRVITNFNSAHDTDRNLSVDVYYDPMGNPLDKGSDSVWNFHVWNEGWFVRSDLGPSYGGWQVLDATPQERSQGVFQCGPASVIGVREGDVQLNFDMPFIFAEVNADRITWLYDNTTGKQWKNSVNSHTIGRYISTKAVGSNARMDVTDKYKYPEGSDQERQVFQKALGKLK

Measured: binding result

B1: Fab fragment of the anti-TG3 antibody DH63-B02 (Fab, V domains shown)
VH: EVQLVESGGGLVQPGRSLRLSCTASGFTFDDYAMHWVRQAPGKGLEWVSRISWNSRSIAYADSVKGRFTISRDSAKNSLYLQMNSLRTEDTALYYCAKDHYLGSDSYGMDVWGQGTTVTVSS
VL: NFMLTQPHSVSESPGKTVTISCTRSSGSIDSNYVQWYQQRPGSAPTIVIHEDNQRPSGVPDRFSGSIDTSSNSASLTISGLKTEDEADYYCQSYDPSNVVFGGGTKLTVL
notes: Fab heavy chain of the human antibody DH63-B02 from a dermatitis herpetiformis patient; Fab light chain of DH63-B02, purified on a resin for human lambda light chains; also called Fab DH63-B02; the Fab
binds: all assays above
